Test results reported in IntAct's records for PubMed 10433268.

B1: Disks large-associated protein 1 (Rattus norvegicus (Rat)), P97836-5 (parent)
chain: MIDLFKAEWVSSVCVQVSRNGRTDQVWVPQDEWTGYTPRGKDDEIPCRRMRSGSYIKAMGDEDSGDSDTSPKPSPKVAARRESYLKATQPSLTELTTLKISNEHSPKLQIRSHSYLRAVSEVSINRSLDSLDPAGLLTSPKFRSRNESYMRAMSTISQVSEMEVNGQFESVCESVFSELESQAVEALDLPMPGCFRMRSHSYVRAIEKGCSQDDECVSLRSSSPPRTTTTVRTIQSSTGVIKLSSAVEAQSSTESAQDAYMDGQGQRGDMISQSGLSNSTESLDSMKALTAAIEAANAQIHGPASQHMGSNAAAVTTTTTIATVTTEDRKKDFKKNRCLSIGIQVDDAEESEKMAESKTSSKFQSVGVQVEEEKCFRRFTRSNSVTTAVQADLDFHDNLENSLESIEDNSCPGPMARQFSRDASTSTVSIQGSGNHYHACAADDDFDTDFDPSILPPPDPWIDSITEDPLEAVQRSVCHRDGHWFLKLLQAERDRMEGWCKQMEREERENNLPEDILGKIRTAVGSAQLLMAQKFYQFRELCEENLNPNAHPRPTSQDLAGFWDMLQLSIENISMKFDELHQLKANNWKQMDPLDKKERRAPPPVPKKPAKGPAPLIRERSLESSQRQEARKRLMAAKRAASVRQNSATESAESIEIYIPEAQTRL

Variants of: B1
Settings: with Shank1, Q9WV48-4
Sequence of Shank1, Q9WV48-4 (Q9WV48 other isoform, or with tags, fused parts or gaps): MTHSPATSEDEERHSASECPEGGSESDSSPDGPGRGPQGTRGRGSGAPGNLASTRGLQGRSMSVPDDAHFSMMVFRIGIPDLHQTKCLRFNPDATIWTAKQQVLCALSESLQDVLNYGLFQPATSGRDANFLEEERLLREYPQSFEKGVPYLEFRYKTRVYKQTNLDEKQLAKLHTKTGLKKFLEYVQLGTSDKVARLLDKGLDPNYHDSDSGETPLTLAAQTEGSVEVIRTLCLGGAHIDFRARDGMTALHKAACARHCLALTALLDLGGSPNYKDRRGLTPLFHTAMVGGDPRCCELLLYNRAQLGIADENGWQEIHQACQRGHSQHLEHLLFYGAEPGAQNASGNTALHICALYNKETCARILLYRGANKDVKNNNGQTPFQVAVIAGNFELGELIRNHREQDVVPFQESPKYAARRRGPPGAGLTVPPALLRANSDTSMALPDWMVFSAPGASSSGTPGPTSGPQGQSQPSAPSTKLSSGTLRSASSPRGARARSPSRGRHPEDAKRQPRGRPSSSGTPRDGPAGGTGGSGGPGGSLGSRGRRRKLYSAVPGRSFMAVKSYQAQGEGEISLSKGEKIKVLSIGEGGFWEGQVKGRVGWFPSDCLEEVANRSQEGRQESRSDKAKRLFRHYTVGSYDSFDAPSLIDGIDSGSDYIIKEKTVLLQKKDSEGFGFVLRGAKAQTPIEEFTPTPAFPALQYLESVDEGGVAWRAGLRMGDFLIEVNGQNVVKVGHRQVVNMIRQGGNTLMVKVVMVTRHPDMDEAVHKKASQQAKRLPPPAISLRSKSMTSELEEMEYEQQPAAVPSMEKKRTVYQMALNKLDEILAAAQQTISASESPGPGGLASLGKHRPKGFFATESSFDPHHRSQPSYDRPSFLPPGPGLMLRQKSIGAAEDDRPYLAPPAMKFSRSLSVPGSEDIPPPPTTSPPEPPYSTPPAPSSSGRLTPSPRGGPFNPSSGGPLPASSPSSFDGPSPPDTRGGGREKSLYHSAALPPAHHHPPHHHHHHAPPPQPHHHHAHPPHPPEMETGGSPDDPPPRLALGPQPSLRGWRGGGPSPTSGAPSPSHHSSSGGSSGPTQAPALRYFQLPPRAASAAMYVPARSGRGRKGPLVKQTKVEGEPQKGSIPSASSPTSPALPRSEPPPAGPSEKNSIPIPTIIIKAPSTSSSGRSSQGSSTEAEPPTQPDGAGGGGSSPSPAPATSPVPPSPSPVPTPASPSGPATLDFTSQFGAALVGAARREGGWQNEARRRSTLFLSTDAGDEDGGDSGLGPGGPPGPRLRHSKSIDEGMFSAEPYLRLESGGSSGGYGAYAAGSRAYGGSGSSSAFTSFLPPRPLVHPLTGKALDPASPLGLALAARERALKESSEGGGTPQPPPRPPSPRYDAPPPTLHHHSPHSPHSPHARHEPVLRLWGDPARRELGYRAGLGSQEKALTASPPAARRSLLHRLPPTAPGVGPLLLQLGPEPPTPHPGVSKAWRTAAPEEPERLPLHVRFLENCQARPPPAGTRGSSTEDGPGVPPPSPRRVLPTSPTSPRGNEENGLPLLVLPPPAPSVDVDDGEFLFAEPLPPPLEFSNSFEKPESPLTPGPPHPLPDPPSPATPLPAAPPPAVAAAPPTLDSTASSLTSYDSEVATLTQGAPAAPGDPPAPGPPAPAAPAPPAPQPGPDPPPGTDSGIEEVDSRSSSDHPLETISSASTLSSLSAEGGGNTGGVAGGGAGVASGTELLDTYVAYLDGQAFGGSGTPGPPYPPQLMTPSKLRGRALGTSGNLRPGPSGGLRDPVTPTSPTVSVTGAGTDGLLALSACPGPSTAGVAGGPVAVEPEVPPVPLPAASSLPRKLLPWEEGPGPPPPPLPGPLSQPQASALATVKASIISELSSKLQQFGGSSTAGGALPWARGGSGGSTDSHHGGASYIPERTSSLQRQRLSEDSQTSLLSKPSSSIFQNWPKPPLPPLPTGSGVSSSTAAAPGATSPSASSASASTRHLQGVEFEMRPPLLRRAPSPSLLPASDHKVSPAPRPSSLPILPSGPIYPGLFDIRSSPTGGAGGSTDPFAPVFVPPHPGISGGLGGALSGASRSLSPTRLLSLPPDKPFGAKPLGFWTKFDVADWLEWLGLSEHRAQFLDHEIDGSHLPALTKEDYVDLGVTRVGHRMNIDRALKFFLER

Question: Which “effect of a mutation on the interaction” value does the source give for T664S here?
Answer: decreasing interaction

Question: For T664A, which “effect of a mutation on the interaction” value is on record?
Answer: disrupting interaction

Question: For L666V, which “effect of a mutation on the interaction” value is on record?
Answer: decreasing interaction

Question: L666A was tested. Which “effect of a mutation on the interaction” value did it give?
Answer: disrupting interaction

Question: R665D was tested. Which “effect of a mutation on the interaction” value did it give?
Answer: decreasing interaction
